According to patent publication US20090304686A1, “INTERFERING IN ACTIVATION OF AN IMMUNE CELL BY INFLUENCING INTERACTION OF LAIR AND COLLAGEN” (UNIVERSOTAIR MEDISCH CENTRUM UTRECHT, priority 2006, published 2009):

What was measured:
[1] = biological target: collagen I (purified, Sigma; acid-soluble human collagen type I in BIAcore) (human) (UniProt P02452); assay: SPR (BIAcore), biphasic dissociation from collagen I, component Koff1
[2] = biological target: collagen I (purified, Sigma; acid-soluble human collagen type I in BIAcore) (human) (UniProt P02452); assay: SPR (BIAcore), biphasic dissociation from collagen I, component Koff2
[3] = biological target: collagen I (purified, Sigma; acid-soluble human collagen type I in BIAcore) (human) (UniProt P02452); assay: SPR (BIAcore), equilibrium binding to immobilised collagen I

B1: hLAIR-1-IgG (extracellular domain of human LAIR-1 fused to the Fc region of human IgG1) (Fc fusion, UniProt Q6GTX8 22-165, looked up, not shown: a dimerising Fc or GST)
chain: QEEDLPRPSISAEPGTVIPLGSHVTFVCRGPVGVQTFRLERDSRSTYNDTEDVSQASPSESEARFRIDSVREGNAGLYRCIYYKPPKWSEQSDYLELLVKESSGGPDSPDTEPGSSAGPTQRPSDNSHNEHAPASQGLKAEHLY
Binder B1 has a koff [1] of 0.000142 s⁻¹, a koff [2] of 0.00187 s⁻¹ and a Kd [3] of 0.0142 µM.
